# Results taken from publication PMC10292035.
# Target: E. cloacae Cap2 C109A/C548A (catalytically dead), untagged (Enterobacter cloacae)
# Experiment: cryo-EM structure
substance,measurement,value
"E. cloacae Cap2 C109A/C548A (catalytically dead), untagged (enzyme)",stoichiometry N,2
